Values quoted from earlier work in article PMC3721222.
Read-outs that look alike come from different tables or passages of the source.

What was measured:
Trypsin (Bos taurus) [1] = molecular target: Trypsin (Bos taurus) (UniProt P00760)
[2] = molecular target: Subtilisin A (Bacillus licheniformis) (UniProt P00780)
[3] = molecular target: Neutrophil elastase (Homo sapiens) (UniProt P08246)
[4] = molecular target: Pancreatic elastase (Sus scrofa) (UniProt P00772)
[5] = molecular target: Chymotrypsin (Bos taurus) (UniProt P00766)
[6] = molecular target: Proteinase K (Parengyodontium album) (UniProt P06873)
[7] = molecular target: Chymotrypsin (Bos taurus) (UniProt P00766); remark: listed apart in the source
Trypsin (Bos taurus) [8] = molecular target: Trypsin (Bos taurus) (UniProt P00760); remark: listed apart in the source
Thrombin (Homo sapiens) = Thrombin (Homo sapiens) (UniProt P00734)
Trypsin (Bos taurus) [9] = molecular target: Trypsin (Bos taurus) (UniProt P00760); remark: listed apart in the source
Trypsin (Bos taurus) [10] = molecular target: Trypsin (Bos taurus) (UniProt P00760); remark: listed apart in the source
[11] = molecular target: Chymotrypsin (Bos taurus) (UniProt P00766); remark: listed apart in the source
[12] = molecular target: Chymotrypsin (Bos taurus) (UniProt P00766); remark: listed apart in the source
Trypsin (Bos taurus) [13] = molecular target: Trypsin (Bos taurus) (UniProt P00760); remark: listed apart in the source
Plasmin (Homo sapiens) [14] = molecular target: Plasmin (Homo sapiens) (UniProt P00747)
[15] = molecular target: Chymotrypsin (Bos taurus) (UniProt P00766); remark: listed apart in the source
Trypsin (Bos taurus) [16] = molecular target: Trypsin (Bos taurus) (UniProt P00760); remark: listed apart in the source
Plasmin (Homo sapiens) [17] = molecular target: Plasmin (Homo sapiens) (UniProt P00747); remark: listed apart in the source
[18] = molecular target: Plasma kallikrein (Homo sapiens) (UniProt P03952)
[19] = molecular target: alpha-Factor XIIa (Homo sapiens) (UniProt P00748)
Trypsin (Bos taurus) [20] = molecular target: Trypsin (Bos taurus) (UniProt P00760); remark: listed apart in the source
Plasmin (Homo sapiens) [21] = molecular target: Plasmin (Homo sapiens) (UniProt P00747); remark: listed apart in the source
Trypsin (Bos taurus) [22] = molecular target: Trypsin (Bos taurus) (UniProt P00760); remark: listed apart in the source
Kv1.2 = Kv1.2 (UniProt P16389)
Kv1.6 = Kv1.6 (UniProt P17658)
Kv1.1 = Kv1.1 (UniProt Q09470)
UniProt Q09470, sequence (Q09470 whole entry): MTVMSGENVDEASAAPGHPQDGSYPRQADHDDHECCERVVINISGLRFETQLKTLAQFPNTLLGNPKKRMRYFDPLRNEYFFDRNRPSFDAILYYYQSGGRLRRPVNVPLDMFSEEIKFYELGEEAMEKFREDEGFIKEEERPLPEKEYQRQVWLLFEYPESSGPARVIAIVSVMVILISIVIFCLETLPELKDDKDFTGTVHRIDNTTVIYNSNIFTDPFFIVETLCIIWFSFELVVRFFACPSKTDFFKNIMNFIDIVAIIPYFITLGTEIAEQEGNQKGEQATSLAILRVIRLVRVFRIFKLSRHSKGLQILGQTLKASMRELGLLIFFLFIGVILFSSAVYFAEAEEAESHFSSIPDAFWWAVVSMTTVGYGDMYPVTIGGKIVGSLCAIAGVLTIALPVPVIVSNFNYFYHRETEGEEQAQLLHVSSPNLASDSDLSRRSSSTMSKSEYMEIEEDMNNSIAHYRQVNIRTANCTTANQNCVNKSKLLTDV

UniProt P00747, sequence (P00747 581-810): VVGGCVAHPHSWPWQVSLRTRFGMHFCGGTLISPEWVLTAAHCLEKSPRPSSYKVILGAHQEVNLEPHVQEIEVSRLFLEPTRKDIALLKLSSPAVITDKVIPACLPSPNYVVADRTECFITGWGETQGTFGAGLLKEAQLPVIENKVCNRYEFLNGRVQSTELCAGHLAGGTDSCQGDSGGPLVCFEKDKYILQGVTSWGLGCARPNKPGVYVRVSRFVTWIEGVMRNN
UniProt P00760, sequence (P00760 149-246): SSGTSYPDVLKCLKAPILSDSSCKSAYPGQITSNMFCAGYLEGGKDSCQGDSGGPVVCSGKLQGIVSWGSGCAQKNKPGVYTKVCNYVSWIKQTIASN
UniProt P00772, sequence (P00772 27-266): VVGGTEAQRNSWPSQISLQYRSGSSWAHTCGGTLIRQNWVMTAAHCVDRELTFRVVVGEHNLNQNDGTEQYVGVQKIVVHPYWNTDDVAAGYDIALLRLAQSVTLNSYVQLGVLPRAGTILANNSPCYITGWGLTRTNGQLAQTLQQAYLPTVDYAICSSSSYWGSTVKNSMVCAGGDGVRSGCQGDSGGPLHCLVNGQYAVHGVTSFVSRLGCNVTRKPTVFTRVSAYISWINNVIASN
UniProt P17658, sequence (P17658 whole entry): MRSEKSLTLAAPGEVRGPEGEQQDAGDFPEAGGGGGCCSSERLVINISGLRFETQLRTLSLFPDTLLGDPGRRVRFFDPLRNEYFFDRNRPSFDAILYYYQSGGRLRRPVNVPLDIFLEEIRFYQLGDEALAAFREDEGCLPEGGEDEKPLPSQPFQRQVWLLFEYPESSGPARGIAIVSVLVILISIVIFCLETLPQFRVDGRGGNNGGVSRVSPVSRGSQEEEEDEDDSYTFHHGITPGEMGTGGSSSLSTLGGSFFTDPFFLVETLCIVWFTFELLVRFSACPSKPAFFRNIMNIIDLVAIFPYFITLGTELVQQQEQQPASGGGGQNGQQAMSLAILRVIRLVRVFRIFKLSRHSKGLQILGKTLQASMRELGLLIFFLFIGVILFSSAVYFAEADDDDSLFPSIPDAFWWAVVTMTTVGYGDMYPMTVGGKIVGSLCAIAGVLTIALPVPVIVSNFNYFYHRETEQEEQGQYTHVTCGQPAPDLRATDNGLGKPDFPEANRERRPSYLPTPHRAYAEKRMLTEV
UniProt P08246, sequence (P08246 30-267): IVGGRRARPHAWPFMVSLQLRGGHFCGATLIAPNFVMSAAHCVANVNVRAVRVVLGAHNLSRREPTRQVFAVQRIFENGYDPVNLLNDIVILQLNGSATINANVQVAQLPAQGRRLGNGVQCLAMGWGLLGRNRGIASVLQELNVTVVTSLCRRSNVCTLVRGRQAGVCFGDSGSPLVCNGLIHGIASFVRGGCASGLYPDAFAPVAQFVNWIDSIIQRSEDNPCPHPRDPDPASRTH
UniProt P00780, sequence (P00780 106-379): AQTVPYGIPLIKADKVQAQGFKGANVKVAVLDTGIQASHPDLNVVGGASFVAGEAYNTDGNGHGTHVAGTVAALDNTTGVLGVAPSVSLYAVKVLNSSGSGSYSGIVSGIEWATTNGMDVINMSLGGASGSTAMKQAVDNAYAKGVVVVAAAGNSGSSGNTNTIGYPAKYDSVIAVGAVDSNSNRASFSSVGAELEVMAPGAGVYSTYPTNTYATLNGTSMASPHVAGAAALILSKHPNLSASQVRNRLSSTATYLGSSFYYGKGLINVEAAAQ
UniProt P00748, sequence (P00748 20-372, chain 1 of 2): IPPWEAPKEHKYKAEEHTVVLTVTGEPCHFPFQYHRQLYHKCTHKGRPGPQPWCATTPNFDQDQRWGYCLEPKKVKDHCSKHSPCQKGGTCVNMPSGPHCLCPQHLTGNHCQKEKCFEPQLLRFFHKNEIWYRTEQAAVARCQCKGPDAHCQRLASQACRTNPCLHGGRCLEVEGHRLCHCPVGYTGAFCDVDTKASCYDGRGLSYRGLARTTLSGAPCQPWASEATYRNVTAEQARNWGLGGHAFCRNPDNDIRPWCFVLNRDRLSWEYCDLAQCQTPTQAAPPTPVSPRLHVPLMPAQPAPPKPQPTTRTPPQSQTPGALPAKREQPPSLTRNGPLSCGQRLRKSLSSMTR
UniProt P00748, sequence (P00748 373-615, chain 2 of 2): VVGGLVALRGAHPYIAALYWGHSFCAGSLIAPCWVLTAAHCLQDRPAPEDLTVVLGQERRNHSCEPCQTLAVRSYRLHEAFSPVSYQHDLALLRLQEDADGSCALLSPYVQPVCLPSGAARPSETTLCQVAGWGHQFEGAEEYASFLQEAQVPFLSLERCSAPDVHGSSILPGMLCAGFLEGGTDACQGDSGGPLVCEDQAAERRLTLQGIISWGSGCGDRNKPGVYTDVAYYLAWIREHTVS
UniProt P03952, sequence (P03952 391-638): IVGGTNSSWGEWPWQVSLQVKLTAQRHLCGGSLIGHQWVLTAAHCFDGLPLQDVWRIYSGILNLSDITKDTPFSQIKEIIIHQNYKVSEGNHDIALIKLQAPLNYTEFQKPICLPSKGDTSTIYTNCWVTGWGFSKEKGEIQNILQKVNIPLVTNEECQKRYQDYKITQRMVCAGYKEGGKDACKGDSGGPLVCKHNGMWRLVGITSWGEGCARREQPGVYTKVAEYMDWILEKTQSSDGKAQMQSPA
UniProt P06873, sequence (P06873 106-384): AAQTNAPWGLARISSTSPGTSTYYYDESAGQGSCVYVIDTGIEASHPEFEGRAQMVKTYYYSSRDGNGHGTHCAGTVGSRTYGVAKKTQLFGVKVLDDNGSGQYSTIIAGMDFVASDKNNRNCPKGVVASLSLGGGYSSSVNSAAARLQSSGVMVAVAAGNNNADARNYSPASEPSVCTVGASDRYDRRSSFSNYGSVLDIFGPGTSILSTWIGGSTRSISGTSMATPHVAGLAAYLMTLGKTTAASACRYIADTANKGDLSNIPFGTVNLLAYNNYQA
UniProt P16389, sequence (P16389 whole entry): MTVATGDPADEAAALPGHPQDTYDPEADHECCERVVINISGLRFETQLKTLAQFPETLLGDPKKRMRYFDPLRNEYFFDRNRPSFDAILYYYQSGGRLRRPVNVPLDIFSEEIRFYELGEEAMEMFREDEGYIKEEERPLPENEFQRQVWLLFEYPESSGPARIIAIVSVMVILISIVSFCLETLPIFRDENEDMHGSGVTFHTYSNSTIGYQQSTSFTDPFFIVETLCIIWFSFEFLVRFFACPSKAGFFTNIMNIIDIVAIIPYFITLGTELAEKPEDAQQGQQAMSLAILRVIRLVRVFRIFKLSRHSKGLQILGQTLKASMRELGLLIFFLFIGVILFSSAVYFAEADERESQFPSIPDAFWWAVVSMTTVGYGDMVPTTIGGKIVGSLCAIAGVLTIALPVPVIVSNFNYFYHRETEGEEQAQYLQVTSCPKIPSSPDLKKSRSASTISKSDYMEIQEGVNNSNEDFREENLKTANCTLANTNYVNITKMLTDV

In the case of APEKTx1 (from UniProt P86862), the Kd (Trypsin (Bos taurus) [1]) is given as 124 nM.

For AvCI (from UniProt L7X735), the Ki [2] is given as 20.5 nM, the Ki [3] is given as 8.74 nM and the Ki [4] is given as 11.3 nM. The Ki [5] was 49.9 nM and the Ki [6] was 65.4 nM.

In the case of BBPTI-1 (from UniProt A8Y7P1), the Ki [7] is given as 4.77 nM.

For Bicolin (from UniProt C0LNR2), the Ki (Trypsin (Bos taurus) [8]) is listed as 550 nM and the Ki (Thrombin (Homo sapiens)) is listed as 26000 nM.

For HWTX-XI (from UniProt P68425), the Kd (Trypsin (Bos taurus) [9]) is given as 0.23 nM.

For “OH-TCI (recombinant) (from UniProt B6RLX2)”, the Ki (Trypsin (Bos taurus) [10]) is given as 391 nM and the Ki [11] is given as 84.6 nM.

In the case of Oh11-1 (from UniProt P82966), the Ki [12] is given as 3520 nM.

In the case of Pr-mulgin 2 (from UniProt E7FL12), the Ki (Trypsin (Bos taurus) [13]) is listed as 5 nM, the Ki (Plasmin (Homo sapiens) [14]) is listed as 40 nM and the Ki [15] is listed as 40 nM.

For Pr-mulgin 3 (from UniProt E7FL13), the Ki (Trypsin (Bos taurus) [16]) is given as 5 nM and the Ki (Plasmin (Homo sapiens) [17]) is given as 100 nM.

For TSPI (from UniProt B7S4N9), the Ki [18] is given as 0.057 nM and the Ki [19] is given as 2380 nM.

For Textilinin-1 (from UniProt Q90WA1), the Ki (Trypsin (Bos taurus) [20]) is listed as 0.76 nM and the Ki (Plasmin (Homo sapiens) [21]) is listed as 0.49 nM.

In the case of rBmKTT-3 (from UniProt P0DJ47), the Kd (Trypsin (Bos taurus) [22]) is listed as 760 nM.

In the case of α-dendrotoxin (from UniProt P00980), the Kd (Kv1.2) is listed as under 20 nM, the Kd (Kv1.6) is listed as under 20 nM and the Kd (Kv1.1) is listed as under 20 nM.
